This is an account of results in the DeepSol protein solubility set.

The series can be described thus: soluble on expression in E. coli; label from the status in PepcDB or PDB records.
As to “MESLTLQPIARVDGTINLPGSKSVSNRALLLAALAHGKTVLTNLLDSDDVRHMLNALTALGVSYTLSADRTRCEIIGNGGPLHAEGALELFLGNAGIAMRSLAAALCLGSNDIVLTGEPRMKERPIGHLVDALRLGGAKITYLEQENYPPLRLQGGFTGGNVDVDGSVSSQFLTALLMTAPLAPEDTVIRIKGDLVSKPYIDITLNLMKTFGVEIENQHYQQFVVKGGQSYQSPGTYLVEGDASSASYFLAAAAIKGGTVKVTGIGRNSMQGDIRFADVLEKMGATICWGDDYISCTRGELNAIDMDMNHIPDAAMTIATAALFAKGTTTLRNIYNWRVKETDRLFAMATELRKVGAEVEEGHDYIRITPPEKLNFAEIATYNDHRMAMCFSLVALSDTPVTILDPKCTAKTFPDYFEQLARISQAA”, the “soluble on expression in E. coli” value is “soluble”.
In the case of “MESLYTSTLSEISEEEIVKGRIVSISNKDVTIDVGFKSEGIVSLLEFRDDDEIKVGDDVEVYLENIEDKMGQLILSKRKADVLRIWDKIYDSIENDTIINGKIINRVKGGMTVSLSGVEAFLPGSQIDVKPVRDFDALVGKTMDFRVVKINPVTQNIVVSHKVILEEEYAAKREEMLANIKVGMVLEGTVKNITDFGIFVDLGGLDGLVHITDITWGRINHPSEVVELDQPIKVVVVGFDENTKRVSLGMKQLEAHPWENIEIKYPVGIKATGRVVSITDYGAFVEIEKGIEGLVHISEMSWTQHIKHPSQFVSLNQEVEVVILNIDKEHTKLSLSMKRVSEDPWIALSEKYVEGSLHKGTVSNITDFGVFVELEPGVDGLVHISDLSWTKKIRHPSELVKKGQELEVKVLKFDVNARRIALGHKQINNDPWGEFEQKYAVGAECTGAISQIIEKGVIVILPGEVDGFVPVSHLLQGGVKDIHSSFKIGDELPLRVIEFDKENKRIILSALEYFKDKSKEEIEAYLQAHPNEKKEIEAASAELEPQPKGR” it was “not soluble”.
In the case of “MESVESAARDYRETLAELRNNNKTQINLLTILADDFKKAAPQIVEVIERHLTTCSPSQKLLVMYVCDSILKNVKKPNDYDALFARKIVSMFEHAFRQGDERIRTSLYRIRVTWASTTLFMPSKLYELDMKINKLDPNWPISNPQTGRALRDDPQVMAPSQSRPAGNATSPAASTSTNRVFVNPKFIGSSTPGAASASKTVVEKTKSPGTVNKEKQVKKEPKQDPLDKLLPSSSASKTSSSPAGLKRKSAPSEHPNAPIRKKPQQPPKPQTAIDEDLRSISLTKKPPVPSAQDQDFRPKTLKPTSVIGSHAFAPVAAPIRPMIPVPPPVSVAPFVPAPPLSSAPPFQHPQQHHPQLPPPPVHQGMGRGYHHNSPPQDPAPIVPVQAPPPQQHLPAPENVYSSEQPKLDVPANNRIFVDGKAYEVMFVDDTAVIERGGAPHRIYFAGPPRNLVIDGIPHLLQFDTPTQIDILGSKHMVKFGAPSRELYIGGHPFKGQFGGPPIIATINGRRHEIRLTGSAPEVRIEPEPAYHLTHFLHKMREEKKIEIASEKPEKKEDWLSYLKNLRTRNILPAPARSPSSPRNQTPPPANLPIPGMNNAGQRGGYHNRHQPQQNARWGGANKQQNIPPPPSDPSPIGSGVEKRSAPPAAITDFNIRLLQIRYDSVVDALITKRADACKFCGMRLDDSQGKSKEWQDHMDWHVKQNLARHGSNNSAAVPYRQWYPSTSTWLTPRASDETNEQEADKPEEPLPGVASSGVKTKECSVCGEKFDEYYDDDEETWRLRDTVNVHGKIVHSACASDAARSLDNSSFFNDSDIKKEEPFD” it was “not soluble”.
For “METETYTNSSHLGRKIERIRRLRGMTQTDLGELLGVTKQAISKMEQAEKIDDEKLKQVATALGVTEEGLKKFTEETVLYYTSNFYENCHVSASNIGPITHVENLNHFSMDQAVKLFEELLKIERDKYDKGKEESAK”, the “soluble on expression in E. coli” value was “not soluble”.
To “METFILSSDSDDDSGPPPSKRRTIEGIPRSFSGDKKIRFSFGASNMSQDTTQEIIPEDTDTVPLTIPSTPALSGKFDSKTPKSVRRRSVSMSCFTPIVETINQPPTNQACSSFLQKEYNFHDLSSDEEGGDGGAGCSKDEDKIIEDNLNLRALLSPEKKKRKEKIEEVQNEFYGVYCLISRSDRPCYKNRCYIGYTVDPNRRIMQHNGGRDKGGAKKTDSRGPWDMVCVVHGFPNHVAALHFEWAWQNPLVSKSLKEKQLRKERKETPFAFQLRIACELMNSSAFCRFALTFRWLITTEELPFPTSCVPPDHTKLRFGKVKKEMSLVPSKREDYLEMGECRICGKDIEKLWSLVRCISATCPSHFHSKCLSENGLKLKNEHVDHVYPLKANCPTCGQFYLWGDIIREQRRIIKISTKCAEEFQNMVVRKELPHREISPISSKK” belongs “not soluble”; to “METFTVKMGADSGLLQFEPANVTVHPGDTVKWVNNKLPPHNILFDDKQVPGASKELADKLSHSQLMFSPGESYEITFSSDFPAGTYTYYCAPHRGAGMVGKITVEG”, “soluble”.
To “METIFEDEETMMAAEQSSSGISANSNSNCSASKTEKASKKPKNAIPKVKNSGIHKKPAKSDFDEFLSSMKSRLSQATSMKSNKEQLKMLEETQKLIFDRITKSADARDMEHLEKQMNKL” belongs “soluble”; to “METKKQSESETYVERMVLPEDMDIYEYLYGGRLMEWIDNCASIVATKHCRKRTVTGSIDSLFFLLPIHLGDMVILHGYINYTTKSTMEIEIDVIKEEGLTGIRRYATKAYLTYVAIDSDGRPTEIPQIVPETDEEKRRYQDAEKRAEERRKRLESIKQQLASMVP”, “not soluble”.
To “METKTVAITMGDPAGIGPEIIVKALSEDGLNGAPLVVIGCLATLKRLQAKGITPNVELRAIERVAEARFAPGIIHVIDEPLAQPEALEAGKVQAQAGDLAYRCVKRATELALRGDVQAIATAPLNKEALHLAGHNYPGHTELLATLTHSRDYAMVLYTDKLKVIHVSTHIALRKFLDTLSTARVETVIGIADTFLKRVGYVKPRIAVAGVNPHAGENGLFGDEETRILTPAITDARAKGMDVYGPCPPDTVFLQAYEGQYDMVVAMYHDQGHIPLKLLGFYDGVNITAGLPFIRTSADHGTAFDIAWTGKAKSESMAVSIKLAMQLA” belongs “soluble”.
Take “METPYHQRWLAFPDAVSSYRPLESRLAGTSRATADNRTPCTGRLGTPRVFLMATDDVSKAYSSPTFDAEALLGTVISAEDPDRVLIEPWATGVDGVILDVGSGTGRWTGHLASLGHQIEGLEPATRLVELARQTHPSVTFHHGTITDLSDSPKRWAGLLAWYSLIHMGPGELPDALVALRMAVEDGGGLLMSFFSGPSLEPMYHPVATAYRWPLPELAQALETAGFQVTSSHWDPRFPHAYLTAEASLEHHHHHH”: the “soluble on expression in E. coli” value was “soluble”.
As to “METSPVFIDYVTIRQEYFGGGLPVLNDGKVLKVDADGEIEYSTDVRCIIEGSYDSRVQVRCDGNTVEFTGNISRYGRRDNLFGYDWPTTIARINDLLSLLGLPPFTSGKLYKFADTGWSWSGARVSRIDLTCNYSTGSKESMHAVLCHMAGQHVGRQKGSLSPDSGTVEYGRGSKYVYGKLYAKYQELEKHRSKKSGSHVSDDVIDYCKTEGILREEFTLKSRFLLQNNLAYLGAITQDNLNQILEHHHHHH”, the “soluble on expression in E. coli” value was “not soluble”.
In the case of “MEVEIEDIDEVATLTETDIVEIQTKLIEDLQEMVVKDKEKHEKLLKLGEHVLDEQTRLRTRLSEEFGDFLNRSKRSLTRNFETADGNVYSFEKNLRELLHLYITVHNRVKQDEKEVAKQDEFLNQIDRNEMELKDLRDNIRSLRSELTVDVGPVSSVTSKTSGIEANFIVKPYKPLETELATQIVRVNRELEILKMQLPNCDHFPNLMNPVQKLGEKVTGMVMKDLPAKKLQDFLDTLPPMKRD” it was “not soluble”; in that of “MEVKEVELELSSEATFLSKTSIGEITAGEKGLNPMELLLVSIGSCSGVDVYHILKKKRQEVKDIKIFLKGKRREKHPKIYEEIEIKYVAVGKVEEKALEQAVKLSTEKYCSVLAMVKPSTNLKISWEVKWEE”, “soluble”.
Take “MEYIPDNSDEGRIVAMTLAVALRRALASVLGVSATELGYAVRPVRLDNEQSVLAVQLYDIISGGAGFASSAPLHIEAVLKGMVKQLGCRHCDTACSECLLDSQTRHDHDQLDRKAAQAWLGEDFSHYIGLPEAEKLEHHHHHH”: the “soluble on expression in E. coli” value was “not soluble”.
To “MFALEVLALERRTALLLGASGLVGGELLKLLLQSDLYRCVTIFVRTPLPVEHEKLQQVVVDFARLESYERYFYVDDVFCCLGTTRKKAKTKQQFIQVDYEYTLRAAALAEKCRAKSFLTVSSVGANPCSPFFYQRVKGETEEALQRLSIPSLHIFRPSLLVGKRREFRLGEALGGWLLCRLPFLFVGKWKKYKPVDAHQLALAMFYRAASATSGVHIYECDELARIS” belongs “not soluble”.
